Measured values published in US20260209362A1 (VIB VZW, published 2026).

T1: human IL-12Rβ2 (human, UniProt Q99665 24-862)
T1 construct: Expressed on HEK293T cells transiently transfected with a pcDNA3 plasmid (Genscript clone OHu21785); also called hIL-12RB2; IL-12 receptor β2 subunit
T1 sequence: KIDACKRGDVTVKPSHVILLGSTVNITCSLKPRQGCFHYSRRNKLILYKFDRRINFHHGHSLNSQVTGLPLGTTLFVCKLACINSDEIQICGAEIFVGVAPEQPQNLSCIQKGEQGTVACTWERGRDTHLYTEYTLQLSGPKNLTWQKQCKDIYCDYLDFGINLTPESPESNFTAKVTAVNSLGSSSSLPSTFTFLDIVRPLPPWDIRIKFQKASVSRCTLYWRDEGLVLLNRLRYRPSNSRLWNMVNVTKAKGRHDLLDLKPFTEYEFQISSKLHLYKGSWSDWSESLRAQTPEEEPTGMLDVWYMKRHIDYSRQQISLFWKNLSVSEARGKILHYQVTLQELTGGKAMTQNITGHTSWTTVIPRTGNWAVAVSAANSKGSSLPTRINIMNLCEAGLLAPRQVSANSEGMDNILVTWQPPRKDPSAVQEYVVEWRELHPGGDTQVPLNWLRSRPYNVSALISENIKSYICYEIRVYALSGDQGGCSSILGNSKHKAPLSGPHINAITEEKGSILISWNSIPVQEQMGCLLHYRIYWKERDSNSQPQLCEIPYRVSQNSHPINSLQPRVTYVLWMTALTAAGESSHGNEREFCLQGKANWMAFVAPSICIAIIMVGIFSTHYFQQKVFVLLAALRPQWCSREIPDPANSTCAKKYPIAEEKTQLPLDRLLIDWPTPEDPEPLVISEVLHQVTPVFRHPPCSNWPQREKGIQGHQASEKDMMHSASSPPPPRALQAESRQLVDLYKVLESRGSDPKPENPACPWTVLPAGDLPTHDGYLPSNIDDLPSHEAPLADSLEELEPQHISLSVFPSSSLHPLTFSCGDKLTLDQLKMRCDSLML


Each binder was assayed against T1, human IL-12Rβ2 (assay: flow cytometry, P.E. on transfected HEK293T cells).

| Binder | % cells bound | dMFI |
| --- | --- | --- |
| anti-IL-12Rβ2 VHH clone 2CRH33 (VHH, not shown: small tags and cut ends, periplasmic extract; also called 20363) VHH: QVQLQESGGGSVQPGWSLRLTCAASGFTFSTSGMHWFRQAPGKGLEWVSSISSGGGDTYYTDSVKGRITISRDNAKNTLYLQLNDLKSEDTAVYYCSKDPSGATRGQGTQVTVSS | 44.8% | 1120 |
| anti-IL-12Rβ2 VHH clone 2CRH60 (VHH, not shown: small tags and cut ends, periplasmic extract) VHH: QVQLQESGGGSVQPGGSLRLTCAASGFTFSTSGMHWFRQAPGKGLEWVSSISSGGGDTYYTDSVKGRITISRDNAKNTLYLQLNDLKSEDTAVYYCSKDPSGATRGQGTQVTVSS | 45.3% | 1100 |
| anti-IL-12Rβ2 VHH clone 3CRHS1 (VHH, not shown: small tags and cut ends, periplasmic extract) VHH: QVQLQESGGGSVQPGGSLRLSCAASGFTFSTSGMHWFRQAPGKGLEWVSSIGIIVDSSYYASSVKGRFTISRDNAKNTLYLQMNSLKSEDTAVYYCSKDPTGSSRGQGTQVTVSS | 44.5% | 1080 |
| anti-IL-12Rβ2 VHH clone 3CRH43 (VHH, not shown: small tags and cut ends, periplasmic extract) VHH: QVQLQESGGGSVQPGGSLRLSCAASGFTFSTSGMHWFRQAPGKGLEWVSSIGIIVDSSYYASSVKGRFTISRDNAKNIVYLQMNSLKSEDTAVYYCSKDPTGSSRGQGTQVTVSS | 45.5% | 1160 |
| anti-IL-12Rβ2 VHH clone 3CRH14 (VHH, not shown: small tags and cut ends, periplasmic extract) VHH: QVQLQESGGGLVQPGGSLRLSCAASGFTFSTSGMHWFRQAPGKGLEWVSSIGIIVDSSYYADSVKGRFTISRDNAKNTLFLQMNSLKSEDTAVYYCSKDPTGSSRGQGTQVTVSS | 41.7% | 864 |
| anti-IL-12Rβ2 VHH clone 2CRH80 (VHH, not shown: small tags and cut ends, periplasmic extract) VHH: QVQLQESGGGLVQPGGSLRLSCAASGFTFSTSGMHWFRQAPGKGLEWVSSIGIIVGSSYYASSVKGRFTISRDNAKNTLYLHMNSLKSEDTAVYYCSKDVTGSSRGQGTQVTVSS | 40.1% | 809 |
| anti-IL-12Rβ2 VHH clone 3CRH45 (VHH, not shown: small tags and cut ends, periplasmic extract) VHH: QVQLQESGGGLVQPGGSLRLSCAASGFTFSTFGMHWFRQAPGKGLEWVSSIGIIDDNSYYASSVKGRFTISRDNAKNTLYLQMNSLKSEDTAVYYCSKDTTGSSRGQGTQVTVSS | 37.6% | 742 |
| anti-IL-12Rβ2 VHH clone 3CRHS9 (VHH, not shown: small tags and cut ends, periplasmic extract) VHH: QVQLQESGGGLVQPGGSLRLSCTASGSIVSIYNMDWYRQAPGNEREWVASITSSGDPYYDGSAKGRFTISRDNAKMTVYLQMNSLKPEDTAVYYCKVPTEKGNYWGQGTQVTVSS | 42.1% | 1040 |
| anti-IL-12Rβ2 VHH clone 3CRH27 (VHH, not shown: small tags and cut ends, periplasmic extract) VHH: QVQLQESGGGLVQAGGSLRLSCTASGSIVSIYNMDWYRQAPGNEREWVASITSSGDPYYDGSAKGRFTISRDNAKMTVYLQMNSLKPEDTAVYYCKVPTEKGNYWGQGTQVTVSS | 38.9% | 812 |
| anti-IL-12Rβ2 VHH clone 3CRH18 (VHH, not shown: small tags and cut ends, periplasmic extract) VHH: QVQLQESGGGLVQPGGSLRLSCTASGNIVSIYNMDWYRQAPGNQREWVASITSSGDPYYDGSAKGRFTISRDNAKMTVYLQMNSLRPEDTAVYYCKVPTEKGNYWGQGTQVTVSS | 41.7% | 918 |
| anti-IL-12Rβ2 VHH clone 3CRH17 (VHH, not shown: small tags and cut ends, periplasmic extract) VHH: QVQLQESGGGLVQAGGSLVLSCAASGSAALIFLMSWYRQAPGKQRELVAEVSRYGSTTYADSVEGRFTISRDNAKNIVDLQMNSLKPEDTAVYYCKADQYYGDSLRSSWGRGTQVTVSS | 32.5% | 583 |
| anti-IL-12Rβ2 VHH clone 2CRH10 (VHH, not shown: small tags and cut ends, periplasmic extract; also called 20362) VHH: QVQLQESGGGLVQAGGSLVLSCAASGSAALIFLMSWYRQAPGKQRELVAEVSRGGSTTYADSVEGRFHISRDNAKNIVDLQMNSLKPEDTAVYYCKADQNYGDSLRSSWGRGTQVTVSS | 30.8% | 595 |
| anti-IL-12Rβ2 VHH clone 2CRH73 (VHH, not shown: small tags and cut ends, periplasmic extract) VHH: QVQLQESGGGLVQAGGSLRLTCTASGSAALIFLMSWYRQAPGKQRELVAEVSRRGSTTYADSVEGRFTISRDNAKNIVDLQMNSLKPEDTAVYYCKADQYYGDSLRSSWGRGTQVTVSS | 36.7% | 707 |
| anti-IL-12Rβ2 VHH clone 2CRH53 (VHH, not shown: small tags and cut ends, periplasmic extract) VHH: QVQLQESGGGLVQAGGSLVLSCAASGSAALIFLMSWYRQAPGKQRELVAEVSRYGSTTYADSVEGRFTISRDNAKDIVDLQMNSLKPEDTAVYYCKADQYYGDSLRSSWGRGTQVTVSS | 35.3% | 686 |
| anti-IL-12Rβ2 VHH clone 3CRH5 (VHH, not shown: small tags and cut ends, periplasmic extract) VHH: QVQLQESGGGLVQAGGSLVLSCAASGSAALIFLMSWYRQAPGKQRELVAEVSRGGSTTYADSVEGRFTISRDNAKNIVDLQMNSLKPEDTAVYYCKADQNYGDSLRSSWGQGTQVTVSS | 39.5% | 835 |

Other lines, results leading:

| % cells bound | dMFI | Binder |
| --- | --- | --- |
| 50.5% | 1480 | anti-IL-12Rβ2 VHH clone 3CRHS128 (VHH, not shown: small tags and cut ends, periplasmic extract) VHH: QVQLQESGGGLVQPGGSLRLSCAASGFTFSTSGMHWFRQAPGKGLEWVSSIGATVDNSYYASSVKGRFTISRDNAKNTLYLLMNSLKSEDTAVYYCSKDPTGSSRGQGTQVTVSS |
| 46.5% | 1260 | anti-IL-12Rβ2 VHH clone 3CRHS109 (VHH, not shown: small tags and cut ends, periplasmic extract) VHH: QVQLQESGGGLVQPGGSLRLSCAASGFTFSTSGMHWFRQAPGKGLEWVSSIGIIVDSSYYASSVKGRFTISRDNAKNTLYLHMNSLKSEDTAVYYCSKDVTGSSRGQGTQVTVSS |
| 38.2% | 787 | anti-IL-12Rβ2 VHH clone 3CRH68 (VHH, not shown: small tags and cut ends, periplasmic extract) VHH: QVQLQESGGGLVQPGGSLRLSCTASGSILSIYNMDWYRQVPGNQREWVASITPSGDPYYDGSVKGRFTISRDNAKMMVYLQMNSLKPEDTAVYYCKVPTEKGNYWGQGTQVTVSS |
| 42% | 1030 | anti-IL-12Rβ2 VHH clone 3CRHS148 (VHH, not shown: small tags and cut ends, periplasmic extract) VHH: QVQLQESGGGLVQPGGSLRLSCIASGSIFSIYNMDWYRQAPGNQREWVASITPSGDPYYDDSAKGRFTISRDNAKMTVYLQMNSLKPEDTAVYYCKVPTEKGNYWGQGTQVTVSS |
| 43.2% | 1130 | anti-IL-12Rβ2 VHH clone 3CRHS100 (VHH, not shown: small tags and cut ends, periplasmic extract) VHH: QVQLQESGGGLVQPGGSLRLSCTASGSIFSIYNMDWYRQAPGNQREWVASITPSGDPYYDDSAKGRFTISRDNAKMTVYLQMNSLKPEDTAVYYCKVPTEKGNYWGQGTQVTVSS |
| 41.5% | 970 | anti-IL-12Rβ2 VHH clone 3CRHS54 (VHH, not shown: small tags and cut ends, periplasmic extract) VHH: QVQLQESGGGLVQPGGSLRLSCTASGSIVSIYNMDWYRQAPGNEREWVASITSSGDPYYDGSAKGRFTISRDNAKMTVYLQMNSLEPEDTAVYFCKVPTEKGNYWGQGTQVTVSS |
| 40.5% | 961 | anti-IL-12Rβ2 VHH clone 3CRHS55 (VHH, not shown: small tags and cut ends, periplasmic extract) VHH: QVQLQESGGGLVQAGGSLNLSCTASGSIISIYNMDWYRQAPGNQREWVASITSNGDSYYDGSAKGRFTISRDNAKMTVYLQMNSLKPEDTAVYYCKVPTENGNYWGQGTQVTVSS |
| 47.2% | 1320 | anti-IL-12Rβ2 VHH clone 3CRHS3 (VHH, not shown: small tags and cut ends, periplasmic extract) VHH: QVQLQESGGGLVQPGGSLRLSCTASGSIFSIYNMDWYRQAPGNQREWVASITSSGDPYYDASVKGRFTISRDSAKMTVYLQMNSLKPEDTAVYYCKLPTEKGNYWGQGTQVTVSS |
